Assay results from IntAct's records for PubMed 11782428.

B1: Tyrosine-protein kinase Lyn (Homo sapiens), P07948 (parent)
chain: MGCIKSKGKDSLSDDGVDLKTQPVRNTERTIYVRDPTSNKQQRPVPESQLLPGQRFQTKDPEEQGDIVVALYPYDGIHPDDLSFKKGEKMKVLEEHGEWWKAKSLLTKKEGFIPSNYVAKLNTLETEEWFFKDITRKDAERQLLAPGNSAGAFLIRESETLKGSFSLSVRDFDPVHGDVIKHYKIRSLDNGGYYISPRITFPCISDMIKHYQKQADGLCRRLEKACISPKPQKPWDKDAWEIPRESIKLVKRLGAGQFGEVWMGYYNNSTKVAVKTLKPGTMSVQAFLEEANLMKTLQHDKLVRLYAVVTREEPIYIITEYMAKGSLLDFLKSDEGGKVLLPKLIDFSAQIAEGMAYIERKNYIHRDLRAANVLVSESLMCKIADFGLARVIEDNEYTAREGAKFPIKWTAPEAINFGCFTIKSDVWSFGILLYEIVTYGKIPYPGRTNADVMTALSQGYRMPRVENCPDELYDIMKMCWKEKAEERPTFDYLQSVLDDFYTATEGQYQQQP
partner: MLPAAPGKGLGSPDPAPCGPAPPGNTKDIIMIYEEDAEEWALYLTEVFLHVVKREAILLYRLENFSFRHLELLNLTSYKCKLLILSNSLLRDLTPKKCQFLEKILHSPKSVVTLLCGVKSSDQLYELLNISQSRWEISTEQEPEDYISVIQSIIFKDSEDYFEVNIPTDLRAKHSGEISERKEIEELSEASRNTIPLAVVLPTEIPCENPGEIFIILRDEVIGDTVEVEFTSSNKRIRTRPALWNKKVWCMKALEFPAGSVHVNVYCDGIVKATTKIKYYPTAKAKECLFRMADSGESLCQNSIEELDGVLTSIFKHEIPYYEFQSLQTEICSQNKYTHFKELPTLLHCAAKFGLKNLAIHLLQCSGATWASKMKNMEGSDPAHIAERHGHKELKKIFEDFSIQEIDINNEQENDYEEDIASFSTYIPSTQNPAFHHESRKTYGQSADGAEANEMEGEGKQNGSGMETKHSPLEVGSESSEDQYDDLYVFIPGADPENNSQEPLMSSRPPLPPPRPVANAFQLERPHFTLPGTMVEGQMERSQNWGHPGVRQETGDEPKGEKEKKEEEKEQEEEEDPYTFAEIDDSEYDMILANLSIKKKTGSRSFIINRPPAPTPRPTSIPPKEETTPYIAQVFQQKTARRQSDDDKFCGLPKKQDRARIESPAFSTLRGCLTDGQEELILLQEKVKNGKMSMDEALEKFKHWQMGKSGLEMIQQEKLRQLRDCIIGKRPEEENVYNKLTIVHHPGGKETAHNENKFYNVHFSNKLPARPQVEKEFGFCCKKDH

Variants of: B1
Conditions: with bank1_human BANK1, Q8NDB2

| Variant | effect of a mutation on the interaction |
| --- | --- |
| R156D;S158F | with no effect |
| P114L | with no effect |

Continued, values first:

| effect of a mutation on the interaction | Variant |
| --- | --- |
| decreasing interaction strength | K275L |
| with no effect | Y508F |
